Data set [1] can be described thus: Enzymatic assay of purified glutamate dehydrogenases, amination of 2-ketobutyrate (NADPH consumption at 340 nm). Type of data set: biochemical. Here is the method: To characterize the enzymes, both the wild-type glutamate dehydrogenase GDHwt and mutant GDH2 were added an N-terminal 6×His-tag, overexpressed, and purified through Ni-NTA columns. The kinetic parameters for […] of 2-ketoglutarate (cognate substrate) and 2-ketoisovalerate or 2-ketobutyrate (nonnatural substrates) were determined by monitoring the consumption of NADPH at 340 nm (FIG. 6). […] The increase in binding affinity is very helpful since high concentration of 2-ketobutyrate interferes with cellular metabolic activities (see, e.g. Daniel et al. (1983) Mol Gen Genet 190(3):452-458). On the basis of the crystallographic model for the active site of GDH, amino group of K92 hydrogenbonds to the γ-carboxyl group of 2-ketoglutarate and determines the substrate specificity (see, e.g. Stillman et al. (1993) J Mol Biol 234(4):1131-1139). Mutation of lysine to valine increases the hydrophobic character of the binding pocket, which explains why the specificity constant kcat/Km of GDH2 towards 2-ketobutyrate is 50-fold higher than that towards the natural substrate 2-ketoglutarate.
Both gene fragments encoding wildtype glutamate dehydrogenase and GDH2 were amplified using primers GDHbamfwd and GDHbamrev. After digestion with BamHI, the gene fragments were inserted into expression plasmid pQE9 (Qiagen). The resulting expression plasmids were transformed into E. coli strain BL21(DE3) harboring pREP4 (Qiagen). Cells were inoculated from an overnight preculture at 1/100 dilution and grown in 200 mL 2XYT rich medium containing 50 mg/L ampicillin and 25 mg/L kanamycin. At an OD600 of 0.6, recombinant proteins were expressed by induction of the cell cultures with 0.1 mM IPTG, followed by incubation at 30° C. overnight. Overexpressed proteins were then purified with Ni-nitrilotriacetic acid columns. Protein concentration was determined by measuring UV absorbance at 280 nm.
(§1) Enzymatic assay was performed in assay buffer (100 mM Tris buffer, pH 8.0) containing 0.2M NH4Cl, 0.2 mM NADPH, and various concentrations of 2-ketoacids. The reactions were started by adding the purified enzymes, and the consumption of NADPH was monitored at 340 nm (extinction coefficient, 6.22 mM^−1 cm^−1). Kinetic parameters (kcat and Km) were determined by fitting initial velocity data to the Michaelis-Menten equation using Origin.

For data set [2], the system named is valine auxotrophic E. coli (ΔavtA, ΔilvE). The experiment in a line: Growth rescue of valine auxotrophic E. coli (ΔavtA, ΔilvE) in M9 minimal medium. Type of data set: cell-based, Escherichia coli. Conditions: absence of valine. An excerpt:
FIG. 4A illustrates a binding pocket of Clostridium symbiosum glutamate dehydrogenase (PDB: 1BGV) complexed with its natural substrate glutamate. Residues K89, T193, V377, and S380 are within a radius of 6 Å of the γ-carbon of glutamate. […] The binding pocket is conserved, and the corresponding residues of E. coli GDH are K92, T195, V377, and S380. These residues were subjected to site-saturation mutagenesis with randomized NNK codon. A library size of 2 million members was transformed into valine auxotrophic E. coli and selected for mutants growing in M9 minimal medium. FIG. 4C is a graph showing the growth curve of E. coli (AavtA, AilvE) transformants in minimal medium. −Val means absence of valine. +Val means presence of valine. Or cells are transformed with GDH1 (K92L, T195A, V377A, and S380C mutations) or GDH2 (K92V and T195S mutations) mutant.
To this end, we have developed a selection strategy to evolve GDH. Deletion of transaminase genes avtA and ilvE from the chromosome makes wild-type E. coli valine auxotrophic (see, e.g. Wang et al. (1987) J Bacteriol 169(9):4228-4234), whose growth in minimal medium can be rescued by a mutant GDH active on aminating the valine precursor 2-ketoisovalerate (FIG. 3B). […]

The test system of data set [3] is threonine. The experiment in a line: Production of L-homoalanine from glucose by E. coli overexpressing GDH2 and threonine dehydratases. The data set is classed as cell-based, Escherichia coli. The conditions noted are these: overexpression in BW25113. The source says:
FIG. 5A is a graph with horizontal axis labels defined as follows: (1) BW25113; (2) BW25113 with overexpression of GDH2; (3) ATCC98082 with overexpression of TdcB & GDH2; (4) ATCC98082 with overexpression of IlvAEc & GDH2; (5) ATCC98082 with overexpression of IlvABS & GDH2; and (6) ATCC98082 (ArhtA) with overexpression of IlvABS and GDH2. FIG. 5B is a graph showing the yield of L-homolalanine biosynthesis from glucose. The error bars represent standard deviations from three independent experiments.
To test the production of L-homoalanine from glucose, E. coli strain ATCC98082 harboring plasmid pZS_thrO (see, e.g. Zhang et al. (2008) Proc Natl Acad Sci USA 105(52):20653-20658) was transformed with pZElac_tdcB_GDH, pZElac_ilvAEC_GDH and pZElac_ilvABS_GDH. These transformants were subjected to fermentation using the following production medium: 30 g glucose, 17 g (NH4)2SO4, 2 g KH2PO4, 1 g MgSO4.7H2O, 2 g yeast extract, 0.1 g L-valine, 0.01 g FeSO4:7H2O and 0.01 g MnSO4:7H2O per liter. Antibiotics were added appropriately (ampicillin 50 mg/L, spectinomycin 25 mg/L). Overnight 2XYT culture were diluted 25× into fermentation medium and 0.1 mM isopropyl-b-D-thiogalactoside (IPTG) was added to induce protein expression. In shake flask experiments, the culture medium was buffered by addition of 30 g/L CaCO3. Cultures were incubated in 33° C. shaker (250 rpm) for 40-50 h until glucose was consumed.

Data set [4] can be described thus: Enzymatic assay of purified glutamate dehydrogenases, amination of 2-ketoisovalerate (NADPH consumption at 340 nm). Type of data set: biochemical. Here is the method:
(§2) To characterize the enzymes, both the wild-type glutamate dehydrogenase GDHwt and mutant GDH2 were added an N-terminal 6×His-tag, overexpressed, and purified through Ni-NTA columns. The kinetic parameters for […] of 2-ketoglutarate (cognate substrate) and 2-ketoisovalerate or 2-ketobutyrate (nonnatural substrates) were determined by monitoring the consumption of NADPH at 340 nm (FIG. 6). […] The increase in binding affinity is very helpful since high concentration of 2-ketobutyrate interferes with cellular metabolic activities (see, e.g. Daniel et al. (1983) Mol Gen Genet 190(3):452-458). […]
(§3) Both gene fragments encoding wildtype glutamate dehydrogenase and GDH2 were amplified using primers GDHbamfwd and GDHbamrev. […] Protein concentration was determined by measuring UV absorbance at 280 nm.
as §1

Data set [5] in a line: Enzymatic assay of purified glutamate dehydrogenases, amination of 2-ketoglutarate (NADPH consumption at 340 nm). Type of data set: biochemical. As to the method: as §2, §3, §1
Data set [6] has as its system 2-ketobutyrate. The experiment in a line: Conversion of fed 2-ketobutyrate to L-homoalanine by E. coli BW25113 overexpressing amination enzymes. Type of data set: cell-based, Escherichia coli. The arrangement: L-homoalanine produced: unit not given here. As to the method: FIG. 2 is a graph comparing different amination enzymes on the production of L-homoalanine. E. coli cultures were inoculated in M9 medium with addition of 10 g/L 2-ketobutyrate and incubated at 37° C. for 24 h. The horizontal axis labels are defined as follows: (A) Wild-type E. coli BW25113; overexpression of (B) transaminase IlvE (C) valine dehydrogenase from Streptomyces avermitilis; (D) valine dehydrogenase from Streptomyces coelicolor, (E) valine dehydrogenase from Streptomyces fradiae; (F) evolved glutamate dehydrogenase GDH1; and (G) evolved glutamate dehydrogenase GDH2. The error bars represent standard deviations from three independent experiments.
In order to check if any endogenous transaminase of E. coli can work on 2-ketobutyrate, we fed 10 g/L 2-ketobutyrate to wildtype E. coli strain BW25113 growing in M9 medium. […] Since the branched-chain amino acid aminotransferase IlvE (see, e.g. Inoue K, et al. (1988) J Biochem 104(5):777-784) is likely to be a functional candidate, we cloned and overexpressed IlvE in BW25113, which increased the production of L-homoalanine to […] (FIG. 2B). […] However, high concentration of glutamate is needed to drive the reaction equilibrium because transamination is a reversible reaction process. Even under such extreme conditions, the conversion rate of transaminating 2-ketobutyrate to L-homoalanine is only 32%.
To test the conversion of 2-ketobutyrate to L-homoalanine, plasmids pZElac_IlvE, pZElac_VDHsa, pZElac_VDHsc, pZElac_VDHsf, pZElac_GDH and pZElac_GDH2 were transformed into BW25113. The transformants were inoculated in M9 medium with 5 g/L yeast extract, 10 g/L ammonium hydrochloride and 20 g/L glucose. Once OD reached ˜1.0, 10 g/L 2-ketobutyrate plus 0.1 mM IPTG were added and incubated at 37° C. for 24 h. Amino acids were quantified as o-phthaldialdehyde (OPA) derivatives by HPLC analysis.

B1: GDH2: evolved E. coli glutamate dehydrogenase mutant with K92V and T195S mutations (protein, listed as Escherichia coli)
chain: MDQTYSLESFLNHVQKRDPNQTEFAQAVREVMTTLWPFLEQNPKYRQMSLLERLVEPERVIQFRVVWVDDRNQIQVNRAWRVQFSSAIGPYVGGMRFHPSVNLSILKFLGFEQTFKNALTTLPMGGGKGGSDFDPKGKSEGEVMRFCQALMTELYRHLGADTDVPAGDIGVGGREVGFMAGMMKKLSNNTACVFSGKGLSFGGSLIRPEATGYGLVYFTEAMLKRHGMGFEGMRVSVSGSGNVAQYAIEKAMEFGARVITASDSSGTVVDESGFTKEKLARLIEIKASRDGRVADYAKEFGLVYLEGQQPWSLPVDIALPCATQNELDVDAAHQLIANGVKAVAEGANMPTTIEATELFQQAGVLFAPGKAANAGGVATSGLEMAQNAARLGWKAEKVDARLHHIMLDIHHACVEHGGEGEQTNYVQGANIAGFVKVADAMLAQGVI
With B1, in data set [1], the “decrease in Km on 2-ketobutyrate compared to GDHwt” value is given as 4 fold and the “increase in kcat on 2-ketobutyrate compared to GDHwt” value was 2 fold. Also, the “kcat towards 2-ketobutyrate” value in data set [1] (100 mM Tris pH 8.0, 0.2M NH4Cl, 0.2 mM NADPH) was determined as 90.2 s⁻¹. Also, the Km in data set [1] (100 mM Tris pH 8.0, 0.2M NH4Cl, 0.2 mM NADPH, read-out: Km towards 2-ketobutyrate) was 8.4 mM. Also, the “specificity constant kcat/Km towards 2-ketobutyrate, higher than towards 2-ketoglutarate” value in data set [1] (2-ketobutyrate versus natural substrate 2-ketoglutarate) is recorded as 50 fold. Further, the “rescue of cell growth without valine” value in data set [2] was “successfully rescued the valine auxotrophic phenotype”. The “L-homoalanine produced from glucose” value in data set [3] worked out at 0.1 g/L. Further, in data set [4], the “kcat towards 2-ketoisovalerate relative to GDHwt” value is recorded as “five times higher kcat than GDHwt”. For the same molecule, the “specificity constant kcat/Km towards 2-ketoglutarate, smaller than that of GDHwt” value in data set [5] is ~3,000 fold. In data set [6] (10 g/L 2-ketobutyrate fed), the “productivity of L-homoalanine” value is 5.1 g/L/day. Besides, the “conversion yield of 2-ketobutyrate to L-homoalanine” value in data set [6] (10 g/L 2-ketobutyrate, no glutamate feeding) is reported as 50%. In data set [6] (BW25113 transformant, 10 g/L 2-ketobutyrate fed, M9 medium, 37° C., 24 h), this molecule returned a L-homoalanine produced of 5.1.

For the origin of these results see patent publication US9550980B2, “Composition and methods for the production of L-homoalanine” (The Regents of the University of California, priority 2010, dated 2017).
